In PMC10062202 one finds Km and kcat data, which are given here for 1 protein.

Substrate in this series: CC(=O)O
The series can be described thus: purified protein. To be noted: 5 mM ATP, 2.5 mM CoA, 6 mM MgCl2, pH 7.5, 37 °C, His-tagged.

B1: atACS (Arabidopsis acetyl-CoA synthetase) (Arabidopsis thaliana) (protein)
chain: ASEENDLVFPSKEFSGQALVSSPQQYMEMHKRSMDDPAAFWSDIASEFYWKQKWGDQVFSENLDVRKGPISIEWFKGGITNICYNCLDKNVEAGLGDKTAIHWEGNELGVDASLTYSELLQRVCQLANYLKDNGVKKGDAVVIYLPMLMELPIAMLACARIGAVHSVVFAGFSADSLAQRIVDCKPNVILTCNAVKRGPKTINLKAIVDAALDQSSKDGVSVGICLTYDNSLATTRENTKWQNGRDVWWQDVISQYPTSCEVEWVDAEDPLFLLYTSGSTGKPKGVLHTTGGYMIYTATTFKYAFDYKSTDVYWCTADCGWITGHSYVTYGPMLNGATVVVFEGAPNYPDPGRCWDIVDKYKVSIFYTAPTLVRSLMRDDDKFVTRHSRKSLRVLGSVGEPINPSAWRWFFNVVGDSRCPISDTWWQTETGGFMITPLPGAWPQKPGSATFPFFGVQPVIVDEKGNEIEGECSGYLCVKGSWPGAFRTLFGDHERYETTYFKPFAGYYFSGDGCSRDKDGYYWLTGRVDDVINVSGHRIGTAEVESALVLHPQCAEAAVVGIEHEVKGQGIYAFVTLLEGVPYSEELRKSLVLMVRNQIGAFAAPDRIHWAPGLPKTRSGKIMRRILRKIASRQLEELGDTSTLADPSVVDQLIALADV
A word on the Km: it is the substrate concentration at which the rate is half of its maximum. What is called kcat is the maximal rate divided by the concentration of active sites. B1: the Michaelis constant (Km) came to 0.18 ± 0.03 mM and the kcat is 15.05 ± 0.65 s⁻¹.
